From patent US7790398B2, “Method for determining effective parathormone activity in a sample” (priority 2001, dated 2010)

Key:
[1] = system: captor antibody against the N-terminal PTH fragment (anti-hPTH(1-34)); assay: Spiking experiments with hPTH(1-37) fragments, Nichols IRMA intact PTH test; assay type: binding, goat; details: 1000 pM hPTH(1-37) added
Experimental: The Nichols Intact PTH Assay (Nichols Institute, San Juan Capistrano, Calif., U.S.A) is a double binding immunoradiometry assay (IRMA) with two polyclonal goat antibodies. […] The second detection antibody, marked with ^125Iodine, recognizes an epitope in the N-terminal section of the PTH (anti-hPTH(1-34)). The sample was incubated at the same time with the antibody coated beads and the ^125Iodine marked detection antibody overnight (12±2 h) at room temperature. After the incubation, the beads were washed and the radioactivity adhering to the solid phase measured in a gamma counter (LKB1277 Gamma Master from Perkin-Elmer). The dose measurement curve (MultiCalc Software) between bound radioactivity and concentration in the sample was determined strictly in accordance with the manufacturer's instructions via a standard measured at the same time. […]
The standard sample and the plasma pools where in each case treated with three different concentrations of hPTH(1-37) fragments in five different oxidation and state forms and then the recovered PTH contents determined. […]
There were produced from each fragment solution three initial concentrations (1000 nM, 100 nM and 10 nM). A further dilution of the fragment solutions 1:100 in the standard and in the pool plasma yielded final concentrations of […] in the sample to be analyzed. […]

[2] = system: captor antibody used in the Roche Elecsys 2010 PTH test; assay: Oxidation and reduction of plasma samples, measured with Roche Elecsys 2010 PTH test
Experimental: The Roche Elecsys™ PTH assay is an electrochemiluminescence immunoassay (ECLIA) on the fully automatic immunoanalyzer Elecsys ^R2010. The epitope recognized by the biotinylated captor antibody contains the PTH amino acids 26 to 32 and the monoclonal ruthenium detection antibody recognizes, in accordance with the information from the manufacturer, an epitope in the region of the PTH amino acids 55 to 64. Sample and antibodies were incubated together for 9 minutes at 37° C., Streptavidin coated paramagnetic beads introduced to the incubation mixture, and finally incubated for further 9 minutes. After magnetic separation of the bonded conjugates from the free conjugates on an electrode surface the luminescence was determined and the end PTH concentration determined via a recalibrated master curve. The interassay variance in the lower and upper normal region was less than 7% CV and in the high concentration region 5% CV.
(§1) 30 plasma samples of dialysis patients and ESRD patients (ESRD=end stage renal disease) were selected at random and oxidized with hydrogen peroxide (30%; end concentration: 1.5 Mol/L) or reduced with sodium boron hydride (NaBH4, aqueous solution of 100 nMol/L). All samples, treated and untreated, where measured at the same time with the Roche Elecsys™2010 and the Nichols IRMA test.
(§2) The oxidation was effected with 30% hydrogen peroxide solution. The hydrogen peroxide concentration in the incubation preparation was at 17% of the 30% solution. All samples were incubated for 45 minutes at 37° C., then also cooled down to −70° C., lyophilized and stored at −20° C. until the quantitative PTH determination.
Of 20 samples an aliquot of each in the ratio 1:1 (v/v) was treated and reduced with a 100 nMol NaBH4 solution. Further, of 10 oxidized samples in each case an aliquot was reverse reduced by the addition of a 100 nMol NaBH4 solution in the ratio 1:1. The samples were incubated for 45 minutes at room temperature and the reaction stopped on dry ice. After the lyophilization the samples were deep frozen at −20° C. until determination. The diagrams of FIGS. 5 to 11 show the results.

[3] = system: polyclonal antibodies employed in the Nichols test; assay: Oxidation and reduction of plasma samples, measured with Nichols IRMA; design: species or system goat; details: H2O2 oxidation
Experimental: The Nichols Intact PTH Assay (Nichols Institute, San Juan Capistrano, Calif., U.S.A) is a double binding immunoradiometry assay (IRMA) with two polyclonal goat antibodies. The captor antibody, immobilized in plastic beads, binds only in the middle or C-terminal section of the hPTH (anti-hPTH(39-89)). The second detection antibody, marked with ^125Iodine, recognizes an epitope in the N-terminal section of the PTH (anti-hPTH(1-34)). The sample was incubated at the same time with the antibody coated beads and the ^125Iodine marked detection antibody overnight (12±2 h) at room temperature. After the incubation, the beads were washed and the radioactivity adhering to the solid phase measured in a gamma counter (LKB1277 Gamma Master from Perkin-Elmer). The dose measurement curve (MultiCalc Software) between bound radioactivity and concentration in the sample was determined strictly in accordance with the manufacturer's instructions via a standard measured at the same time. The interassay variance in the normal and increased region was less than 10% CV.
as §1, §2
Of 20 samples an aliquot of each in the ratio 1:1 (v/v) was treated and reduced with a 100 nMol NaBH4 solution. Further, of 10 oxidized samples in each case an aliquot was reverse reduced by the addition of a 100 nMol NaBH4 solution in the ratio 1:1. […]

[4] = H2O2 oxidation, individual samples

Molecule	signal reduction to % of the native measured sample [1] [%]	measurement value after oxidation, average, of the initial value ([2]; H2O2 oxidation, 45 minutes at 37° C., plasma of dialysis and ESRD patients) [%]	highest remaining measurement signal after oxidation, % of initial value [2, 4] [%]	lowest remaining measurement signal after oxidation, % of initial value [2, 4] [%]	measurement value after oxidation and reverse reduction, of the initial value ([2]; H2O2 then NaBH4)	concentration after oxidation, average, of the initial value [3] [%]	highest remaining concentration after oxidation, % of initial value (smallest reduction) ([3]; individual samples) [%]	lowest remaining concentration after oxidation, % of initial value (largest reduction) ([3]; individual samples) [%]
hPTH(1-37): native hPTH(1-37) fragment of human parathyroid hormone, from IPF or Immundiagnostik AG (SVSEIQLMHNLGKHLNSMERVEWLRKKLQDVHNFVAL; Parathyroid hormone; UniProt P01270 32-68, looked up, fragment)	50	–	–	–	–	–	–	–
PTH: parathyroid hormone, single polypeptide chain of 84 amino acids, endogenous in plasma samples of dialysis patients (protein, UniProt P01270 32-115, looked up, Parathyroid hormone, parathyroid hormone, single polypeptide chain of 84 amino acids, endogenous in plasma samples of dialysis patients) Parathyroid hormone: SVSEIQLMHNLGKHLNSMERVEWLRKKLQDVHNFVALGAPLAPRDAGSQRPRKKEDNVLVESHEKSLGEADKADVNVLTKAKSQ	–	29	53	10	ca. 50%	76	98	33
